This is an account of results in PMC4472604.

Assay in all cases: radioligand
Common to all, as to settings: modification not given

The target in assay [1] is MOR (Mus musculus), P42866.
The target of assay [2] is T1, 6TM/E11 6TM/E11 splice variant (Mus musculus), P42866.
T1 chain: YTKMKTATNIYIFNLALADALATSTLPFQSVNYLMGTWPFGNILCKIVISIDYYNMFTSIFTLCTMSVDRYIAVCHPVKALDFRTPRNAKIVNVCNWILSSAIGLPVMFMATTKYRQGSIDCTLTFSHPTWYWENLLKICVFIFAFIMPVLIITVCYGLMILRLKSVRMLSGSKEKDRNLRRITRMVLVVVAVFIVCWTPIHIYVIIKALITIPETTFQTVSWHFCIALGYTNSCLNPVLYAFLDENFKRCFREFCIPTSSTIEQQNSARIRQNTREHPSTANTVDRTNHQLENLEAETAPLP

For assay [3], the target named is T2, KOR (Mus musculus), P33534.
T2 chain: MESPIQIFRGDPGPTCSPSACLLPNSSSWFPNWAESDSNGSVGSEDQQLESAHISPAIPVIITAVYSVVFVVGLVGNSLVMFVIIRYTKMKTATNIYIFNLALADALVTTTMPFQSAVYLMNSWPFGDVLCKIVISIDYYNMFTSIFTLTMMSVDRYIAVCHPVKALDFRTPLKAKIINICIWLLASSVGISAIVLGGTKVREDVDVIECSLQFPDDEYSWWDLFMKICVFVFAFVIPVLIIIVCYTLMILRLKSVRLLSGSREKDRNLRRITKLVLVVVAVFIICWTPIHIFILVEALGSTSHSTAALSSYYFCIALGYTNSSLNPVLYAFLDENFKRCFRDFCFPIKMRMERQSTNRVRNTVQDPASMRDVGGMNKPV

Assay [4] has as its target T3, DOR (Mus musculus), P32300.
T3 chain: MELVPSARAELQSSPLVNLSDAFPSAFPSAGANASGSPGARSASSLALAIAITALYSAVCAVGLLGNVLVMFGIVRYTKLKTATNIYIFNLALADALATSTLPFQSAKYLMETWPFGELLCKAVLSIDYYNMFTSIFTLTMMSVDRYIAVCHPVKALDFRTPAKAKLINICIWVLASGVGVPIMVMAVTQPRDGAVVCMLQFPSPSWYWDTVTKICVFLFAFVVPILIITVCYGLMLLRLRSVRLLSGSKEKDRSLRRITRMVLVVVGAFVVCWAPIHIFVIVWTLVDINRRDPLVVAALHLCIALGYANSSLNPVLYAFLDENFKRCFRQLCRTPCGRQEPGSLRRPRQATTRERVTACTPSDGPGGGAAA

MOR (Mus musculus), P42866, sequence (P42866 whole entry, canonical isoform): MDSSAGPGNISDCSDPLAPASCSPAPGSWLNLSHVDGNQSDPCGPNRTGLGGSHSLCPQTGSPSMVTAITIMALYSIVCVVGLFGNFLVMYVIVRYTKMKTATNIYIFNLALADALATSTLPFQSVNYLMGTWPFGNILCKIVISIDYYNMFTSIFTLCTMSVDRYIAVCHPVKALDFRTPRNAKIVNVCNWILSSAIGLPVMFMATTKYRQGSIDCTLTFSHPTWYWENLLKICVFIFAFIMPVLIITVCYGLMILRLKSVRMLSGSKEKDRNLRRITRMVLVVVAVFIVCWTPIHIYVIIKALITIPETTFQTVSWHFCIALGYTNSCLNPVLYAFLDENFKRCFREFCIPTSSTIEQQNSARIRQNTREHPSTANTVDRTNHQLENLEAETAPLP

Regarding YAFEIIG [peptide 1], the Ki in assay [1], in assay [2] and in assay [3] was more than 1000 nM each time.

For the molecule YAFEVVG [[D-Ala2]deltorphin II], the Ki in assay [1], in assay [2] and in assay [3] was more than 1000 nM in each case.

Take YAFEIIG [[125I]-3 (125I-GATE3-8)]: the Kd in assay [4] was 0.11 nM.
